In patent publication US20220064329A1 (Novo Nordisk, published 2022):
Where a chain is given by its changes, count along the chain named. Names and notes keep the numbering of the source.

T1: recombinant human activated Factor VII (FVIIa) (human, UniProt P08709 61-212; P08709 213-466, ten glutamate residues of the Gla domain may be gamma-carboxylated)
T1 construct: chains tethered by a disulfide bond; also called Factor VIIa; rFVIIa
T1 sequence 1: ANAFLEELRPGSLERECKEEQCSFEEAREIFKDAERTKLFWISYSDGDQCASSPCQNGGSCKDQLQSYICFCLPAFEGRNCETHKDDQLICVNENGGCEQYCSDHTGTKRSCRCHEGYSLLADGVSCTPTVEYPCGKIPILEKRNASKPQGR
T1 sequence 2: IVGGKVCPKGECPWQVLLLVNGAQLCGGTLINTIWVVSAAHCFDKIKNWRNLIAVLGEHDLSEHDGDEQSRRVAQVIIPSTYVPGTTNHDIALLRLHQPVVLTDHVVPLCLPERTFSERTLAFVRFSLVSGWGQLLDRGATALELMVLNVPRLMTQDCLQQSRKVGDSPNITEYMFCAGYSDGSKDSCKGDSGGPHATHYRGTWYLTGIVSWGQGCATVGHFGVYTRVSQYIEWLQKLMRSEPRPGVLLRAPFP

B1: VH SEQ ID NO 522 / VL SEQ ID NO 358 (antibody, IgG4, V domains shown)
VH: QVQLQESGPGLVEPSQTLSLTCTVSGYSISSDSAWSWIRQPPGKGLEWIGYIQYSGSTNYNPSLKSRVTISRDTSKNQFSLKLSSVTAADTAVYYCARSVNYYGNSFAVGPWGQGTLVTVSS
VL: EIVLTQSPATLSLSPGERATLSCRASQGISDYLHWYQQKPGQAPRLLIKYTSQPATGIPARFSGSGSGTDFTLTISSLEPEDFAVYYCQNGHSFPLTFGQGTKLEIK
notes: humanized 11F2; IgG4 S228P/kappa
B2: VH SEQ ID NO 522 / VL SEQ ID NO 374 (antibody, IgG4, V domains shown)
VH: B1 VH
VL: B1 VL with I29L, H34A
notes: as for B1
B3: VH SEQ ID NO 522 / VL SEQ ID NO 422 (antibody, IgG4, V domains shown)
VH: B1 VH
VL: B1 VL with I29V, H34A, T51A, N90Q
notes: as for B1
B4: VH SEQ ID NO 530 / VL SEQ ID NO 326 (antibody, IgG4, V domains shown)
VH: B1 VH with P111Y
VL: B1 VL with Q42E, A84G, Q100A, I106L
notes: as for B1
B5: VH SEQ ID NO 522 / VL SEQ ID NO 446 (antibody, IgG4, V domains shown)
VH: B1 VH
VL: B1 VL with I29V, H34A
notes: as for B1
B6: VH SEQ ID NO 522 / VL SEQ ID NO 382 (antibody, IgG4, V domains shown)
VH: B1 VH
VL: B1 VL with I29L, Q42E, T51A
notes: as for B1
B7: VH SEQ ID NO 530 / VL SEQ ID NO 462 (antibody, IgG4, V domains shown)
VH: B1 VH with P111Y
VL: B1 VL with I29V, T51A, Q100A
notes: as for B1
B8: VH SEQ ID NO 522 / VL SEQ ID NO 470 (antibody, IgG4, V domains shown)
VH: B1 VH
VL: B1 VL with I29V, T51A
notes: as for B1
B9: VH SEQ ID NO 530 / VL SEQ ID NO 438 (antibody, IgG4, V domains shown)
VH: B1 VH with P111Y
VL: B1 VL with I29V, H34A, T51A, F83V
notes: as for B1
B10: VH SEQ ID NO 522 / VL SEQ ID NO 486 (antibody, IgG4, V domains shown)
VH: B1 VH
VL: B1 VL with I29V, T51A, A84G
notes: as for B1
B11: VH SEQ ID NO 522 / VL SEQ ID NO 478 (antibody, IgG4, V domains shown)
VH: B1 VH
VL: B1 VL with I29V, T51A, N90Q
notes: as for B1
B12: VH SEQ ID NO 530 / VL SEQ ID NO 390 (antibody, IgG4, V domains shown)
VH: B1 VH with P111Y
VL: B1 VL with I29V, H34A, Q42E, T51A
notes: as for B1
B13: VH SEQ ID NO 530 / VL SEQ ID NO 430 (antibody, IgG4, V domains shown)
VH: B1 VH with P111Y
VL: B1 VL with I29V, H34A, T51A, A84G
notes: as for B1
B14: VH SEQ ID NO 522 / VL SEQ ID NO 406 (antibody, IgG4, V domains shown)
VH: B1 VH
VL: B1 VL with I29V, H34A, T51A, Q100A
notes: as for B1
B15: VH SEQ ID NO 530 / VL SEQ ID NO 398 (antibody, IgG4, V domains shown)
VH: B1 VH with P111Y
VL: B1 VL with I29V, H34A, Q42E
notes: as for B1
B16: VH SEQ ID NO 530 / VL SEQ ID NO 414 (antibody, IgG4, V domains shown)
VH: B1 VH with P111Y
VL: B1 VL with I29V, H34A, T51A
notes: as for B1
B17: VH SEQ ID NO 522 / VL SEQ ID NO 366 (antibody, IgG4, V domains shown)
VH: B1 VH
VL: B1 VL with I29L, H34A, Q42E, T51A
notes: as for B1
B18: VH SEQ ID NO 522 / VL SEQ ID NO 454 (antibody, IgG4, V domains shown)
VH: B1 VH
VL: B1 VL with I29V, Q42E, T51A
notes: as for B1
B19: VH SEQ ID NO 522 / VL SEQ ID NO 462 (antibody, IgG4, V domains shown)
VH: B1 VH
VL: B1 VL with I29V, T51A, Q100A
notes: as for B1
B20: VH SEQ ID NO 530 / VL SEQ ID NO 318 (antibody, IgG4, V domains shown)
VH: B1 VH with P111Y
VL: B1 VL with Q42E
notes: as for B1
B21: VH SEQ ID NO 530 / VL SEQ ID NO 486 (antibody, IgG4, V domains shown)
VH: B1 VH with P111Y
VL: B1 VL with I29V, T51A, A84G
notes: as for B1
B22: VH SEQ ID NO 522 / VL SEQ ID NO 414 (antibody, IgG4, V domains shown)
VH: B1 VH
VL: B1 VL with I29V, H34A, T51A
notes: as for B1
B23: VH SEQ ID NO 522 / VL SEQ ID NO 390 (antibody, IgG4, V domains shown)
VH: B1 VH
VL: B1 VL with I29V, H34A, Q42E, T51A
notes: as for B1
B24: VH SEQ ID NO 530 / VL SEQ ID NO 446 (antibody, IgG4, V domains shown)
VH: B1 VH with P111Y
VL: B1 VL with I29V, H34A
notes: as for B1
B25: VH SEQ ID NO 522 / VL SEQ ID NO 438 (antibody, IgG4, V domains shown)
VH: B1 VH
VL: B1 VL with I29V, H34A, T51A, F83V
notes: as for B1
B26: VH SEQ ID NO 530 / VL SEQ ID NO 374 (antibody, IgG4, V domains shown)
VH: B1 VH with P111Y
VL: B1 VL with I29L, H34A
notes: as for B1
B27: VH SEQ ID NO 530 / VL SEQ ID NO 478 (antibody, IgG4, V domains shown)
VH: B1 VH with P111Y
VL: B1 VL with I29V, T51A, N90Q
notes: as for B1
B28: VH SEQ ID NO 522 / VL SEQ ID NO 502 (antibody, IgG4, V domains shown)
VH: B1 VH
VL: B1 VL with I29V
notes: as for B1
B29: VH SEQ ID NO 522 / VL SEQ ID NO 398 (antibody, IgG4, V domains shown)
VH: B1 VH
VL: B1 VL with I29V, H34A, Q42E
notes: as for B1
B30: VH SEQ ID NO 530 / VL SEQ ID NO 494 (antibody, IgG4, V domains shown)
VH: B1 VH with P111Y
VL: B1 VL with I29V, T51A, F83V
notes: as for B1
B31: VH SEQ ID NO 522 / VL SEQ ID NO 430 (antibody, IgG4, V domains shown)
VH: B1 VH
VL: B1 VL with I29V, H34A, T51A, A84G
notes: as for B1
B32: VH SEQ ID NO 530 / VL SEQ ID NO 382 (antibody, IgG4, V domains shown)
VH: B1 VH with P111Y
VL: B1 VL with I29L, Q42E, T51A
notes: as for B1
B33: VH SEQ ID NO 530 / VL SEQ ID NO 454 (antibody, IgG4, V domains shown)
VH: B1 VH with P111Y
VL: B1 VL with I29V, Q42E, T51A
notes: as for B1
B34: VH SEQ ID NO 530 / VL SEQ ID NO 358 (antibody, IgG4, V domains shown)
VH: B1 VH with P111Y
VL: B1 VL
notes: as for B1
B35: VH SEQ ID NO 530 / VL SEQ ID NO 310 (antibody, IgG4, V domains shown)
VH: B1 VH with P111Y
VL: B1 VL with H34A, T51A
notes: as for B1
B36: VH SEQ ID NO 530 / VL SEQ ID NO 470 (antibody, IgG4, V domains shown)
VH: B1 VH with P111Y
VL: B1 VL with I29V, T51A
notes: as for B1
B37: VH SEQ ID NO 530 / VL SEQ ID NO 422 (antibody, IgG4, V domains shown)
VH: B1 VH with P111Y
VL: B1 VL with I29V, H34A, T51A, N90Q
notes: as for B1
B38: VH SEQ ID NO 530 / VL SEQ ID NO 334 (antibody, IgG4, V domains shown)
VH: B1 VH with P111Y
VL: B1 VL with T51A
notes: as for B1
B39: VH SEQ ID NO 530 / VL SEQ ID NO 342 (antibody, IgG4, V domains shown)
VH: B1 VH with P111Y
VL: B1 VL with T69R, Q100A, I106L
notes: as for B1
B40: VH SEQ ID NO 530 / VL SEQ ID NO 406 (antibody, IgG4, V domains shown)
VH: B1 VH with P111Y
VL: B1 VL with I29V, H34A, T51A, Q100A
notes: as for B1
B41: VH SEQ ID NO 530 / VL SEQ ID NO 350 (antibody, IgG4, V domains shown)
VH: B1 VH with P111Y
VL: B1 VL with Q100A, I106L
notes: as for B1
B42: VH SEQ ID NO 530 / VL SEQ ID NO 366 (antibody, IgG4, V domains shown)
VH: B1 VH with P111Y
VL: B1 VL with I29L, H34A, Q42E, T51A
notes: as for B1
B43: VH SEQ ID NO 522 / VL SEQ ID NO 494 (antibody, IgG4, V domains shown)
VH: B1 VH
VL: B1 VL with I29V, T51A, F83V
notes: as for B1

Biological target: T1, recombinant human activated Factor VII …
Assay: BLI (Fortebio)
Method: All steps were performed in running buffer (20 mM HEPES buffer (pH 7.4), 150 mM NaCl, 5 mM CaCl2, 0.03% Tween 20, 1 mg/ml IgG-free BSA) at […] Antibodies were captured on anti-human tips (AHC, Fortebio) for 3 min at a concentration of 10 ug/ml. This was followed by a 3 min incubation to establish a baseline. Following this, association was monitored for 3 min using four different concentrations of VIIa (25 nm, 50 nM, 100 nM, and 200 nM), followed by a 3 mi dissociation. Sensorgrams were analysed using Fortebio data analysis software.

Row | Kd [nM] | Binder
1 | 1.3 | B1
2 | 14 | B2
3 | 110 | B3
4 | 1.1 | B4
5 | 170 | B5
6 | 1.3 | B6
7 | 1 | B7
8 | 0.96 | B8
9 | 4.6 | B9
10 | 1.5 | B10
11 | 1.6 | B11
12 | 4.1 | B12
13 | 4.9 | B13
14 | 17 | B14
15 | 7.1 | B15
16 | 4.5 | B16
17 | 14 | B17
18 | 1 | B18
19 | 1.2 | B19
20 | 1.2 | B20
21 | 0.99 | B21
22 | 31 | B22

Row | Kd [nM] | Binder
23 | 15 | B23
24 | 7.9 | B24
25 | 57 | B25
26 | 4.2 | B26
27 | 1.4 | B27
28 | 1.4 | B28
29 | 320 | B29
30 | 1 | B30
31 | 12 | B31
32 | 1.1 | B32
33 | 1.1 | B33
34 | 1 | B34
35 | 2.5 | B35
36 | 0.96 | B36
37 | 26 | B37
38 | 1.2 | B38
39 | 1.2 | B39
40 | 4.3 | B40
41 | 0.96 | B41
42 | 3.2 | B42
43 | 1.7 | B43
